According to paper PMC8325959:

Molecular target: recombinant human GST–PBD (UniProt P53350)
Experiment: in vitro binding assay, western blot quantification
Settings: read off a plot

Chain of UniProt P53350 (P53350 whole entry, looked up): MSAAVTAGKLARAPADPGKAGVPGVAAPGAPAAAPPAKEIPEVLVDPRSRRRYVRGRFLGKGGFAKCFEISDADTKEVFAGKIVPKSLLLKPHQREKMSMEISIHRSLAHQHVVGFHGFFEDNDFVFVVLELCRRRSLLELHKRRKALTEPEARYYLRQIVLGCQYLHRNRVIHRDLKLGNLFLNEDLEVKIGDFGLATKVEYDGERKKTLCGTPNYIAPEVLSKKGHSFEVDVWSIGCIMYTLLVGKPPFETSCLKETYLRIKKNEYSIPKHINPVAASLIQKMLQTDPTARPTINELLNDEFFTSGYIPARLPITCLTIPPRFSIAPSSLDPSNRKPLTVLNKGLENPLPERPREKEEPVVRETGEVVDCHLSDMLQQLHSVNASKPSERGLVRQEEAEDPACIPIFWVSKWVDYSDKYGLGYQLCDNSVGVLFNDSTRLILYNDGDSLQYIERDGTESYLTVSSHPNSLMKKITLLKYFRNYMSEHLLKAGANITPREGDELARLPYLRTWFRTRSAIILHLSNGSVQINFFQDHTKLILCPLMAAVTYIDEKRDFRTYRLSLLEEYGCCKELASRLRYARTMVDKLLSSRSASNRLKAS

With “MBP–CTb (WT Ana1 CTb fragment), phosphorylated by Aurora A in vitro S10T” the response (repeat Aurora #1, MBP–CTb pre-treated with Aurora A (+), parent: est. 1.4) was 1.2 a.u and the response (repeat Aurora #2, MBP–CTb pre-treated with Aurora A (+), parent: est. 1.5) was 1.2 a.u.
In the case of “MBP–CTa (WT Ana1 CTa fragment), pre-treated with PLK1 S10T”, the response (single repeat PLK1 + CTa, MBP–CTa pre-treated with PLK1 (+), parent: est. 1.0) is reported as 1.1 a.u.
With “MBP–CTb (WT Ana1 CTb fragment), pre-treated with buffer S10T” the response (repeat Aurora #1, no kinase (-), parent: est. 1.4) was 1 a.u, the response (repeat Aurora #2, no kinase (-), parent: est. 1.3) was 1 a.u and the response (repeat PLK1 #1, no kinase (-), parent: est. 1.1) was 1 a.u. The response (repeat PLK1 #2, no kinase (-), parent: est. 1.2) was 1 a.u, the response (repeat PLK1 #3, no kinase (-), parent: est. 1.3) was 1 a.u and the response (repeat PLK1 #4, no kinase (-), parent: est. 1.3) was 1 a.u.
In the case of “MBP–CTb (WT Ana1 CTb fragment), phosphorylated by PLK1 in vitro (from UniProt Q9VC64) S10T”, the response (repeat PLK1 #1, MBP–CTb pre-treated with PLK1 (+), parent: est. 1.7) is reported as 1.1 a.u, the response (repeat PLK1 #2, MBP–CTb pre-treated with PLK1 (+), parent: est. 1.9) is reported as 1.5 a.u and the response (repeat PLK1 #3, MBP–CTb pre-treated with PLK1 (+), parent: est. 1.8) is reported as 1.4 a.u. It also gave a response (repeat PLK1 #4, MBP–CTb pre-treated with PLK1 (+), parent: est. 2.2) of 1.3 a.u.
